Results taken from article PMC3302758.

Columns and labels:
14-3-3β = 14-3-3β (UniProt P31946); experiment: CFTR IP, 14-3-3β immunoblot; details: reference: basal cells; sites S660,S670,S700,S712,S737,S753,S768,S795,S813
14-3-3ε = 14-3-3ε (UniProt P62258); experiment: CFTR IP, 14-3-3ε immunoblot; details: reference: basal cells; sites S660,S670,S700,S712,S737,S753,S768,S795,S813

fold change (14-3-3β): 2.3 fold
fold change (14-3-3ε): 3.1 fold
Substance: CFTR (from UniProt P13569) forskolin 10 µM, 15 min
